Drawing on PMC10702477, this text covers Km and kcat for 1 protein.

In general, Km refers to the substrate concentration at which the rate is half of its maximum. A word on the kcat: it is the maximal rate divided by the concentration of active sites.

Substrate in data set [1]: O=c1cc(-c2ccccc2)c2c(O)cc(O)cc2o1
The data set can be described thus: RP-HPLC product/acceptor peak ratio, Michaelis-Menten fit. The class given is biochemical, Arabidopsis thaliana. To be noted: 500 μM UDP-Glc, 50 mM TBT buffer at optimal pH, 293 K; product 7-O-Glc; 20.0 °C.

Substrate in data set [2]: Cc1cc(=O)oc2cc(O)cc(O)c12
Described as above. The class given is biochemical, Arabidopsis thaliana. To be noted: 500 μM UDP-Glc, 50 mM TBT buffer at optimal pH, 293 K; product 5-O-Glc; 20.0 °C.

B1: AtUGT78D2 (Arabidopsis thaliana) (protein)
chain: MTKPSDPTRDSHVAVLAFPFGTHAAPLLTVTRRLASASPSTVFSFFNTAQSNSSLFSSGDEADRPANIRVYDIADGVPEGYVFSGRPQEAIELFLQAAPENFRREIAKAETEVGTEVKCLMTDAFFWFAADMATEINASWIAFWTAGANSLSAHLYTDLIRETIGVKEVGERMEETIGVISGMEKIRVKDTPEGVVFGNLDSVFSKMLHQMGLALPRATAVFINSFEDLDPTLTNNLRSRFKRYLNIGPLGLLSSTLQQLVQDPHGCLAWMEKRSSGSVAYISFGTVMTPPPGELAAIAEGLESSKVPFVWSLKEKSLVQLPKGFLDRTREQGIVVPWAPQVELLKHEATGVFVTHCGWNSVLESVSGGVPMICRPFFGDQRLNGRAVEVVWEIGMTIINGVFTKDGFEKCLDKVLVQDDGKKMKCNAKKLKELAYEAVSSKGRSSENFRGLLDAVVNII
Regarding B1, the values for the Km in data set [1] and in data set [2] were 28.9 ± 4.8 µM and 34.4 ± 4.3 µM, respectively. Further, the turnover number (kcat) was determined as 0.132 ± 0.00667 s⁻¹ in data set [1] and 0.932 ± 0.04 s⁻¹ in data set [2].
